Results from article PMC6555819, “Comprehensive study of nuclear receptor DNA binding provides a revised framework for understanding receptor specificity”.
Where a chain is given by its changes, count along the chain named.

B1: NRC3_wobSeed121_DR5_T8A_o1 (dsDNA)
DNA 1: GCCAAACAAGGTCACCGGAAGGTCAAAGTCCGCATGGCGATTGACAGCGTAGAATGAAGG
DNA 2: CCTTCATTCTACGCTGTCAATCGCCATGCGGACTTTGACCTTCCGGTGACCTTGTTTGGC
B2: NRC3_wobSeed141_DR5_A24C_o1 (dsDNA)
DNA 1: GCAGTCAAAGTTCAGGACGAGGTCACGTAAAGCACGGCGATTGACAGCGTAGAATGAAGG
DNA 2: CCTTCATTCTACGCTGTCAATCGCCGTGCTTTACGTGACCTCGTCCTGAACTTTGACTGC
B3: NRC3_wobSeed25_DR1_T8A_o1 (dsDNA)
DNA 1: GCCAAACAAGGTCAAAGGTCAAAGTCGAGCCAACCAGCGATTGACAGCGTAGAATGAAGG
DNA 2: CCTTCATTCTACGCTGTCAATCGCTGGTTGGCTCGACTTTGACCTTTGACCTTGTTTGGC
B4: NRC3_wobSeed25_DR1_T8G_o1 (dsDNA)
DNA 1: B3 DNA 1 with A8G
DNA 2: B3 DNA 2 with T53C
B5: NRC3_random_hg19_360_o1 (dsDNA)
DNA 1: GCGCCTGCATAGCCATTCACAGACACTGCCAATACCGCGATTGACAGCGTAGAATGAAGG
DNA 2: CCTTCATTCTACGCTGTCAATCGCGGTATTGGCAGTGTCTGTGAATGGCTATGCAGGCGC
B6: NRC3_random_hg19_257_o1 (dsDNA)
DNA 1: GCACACTGACAATAGCATACACCTTTCCAGAATGCGGCGATTGACAGCGTAGAATGAAGG
DNA 2: CCTTCATTCTACGCTGTCAATCGCCGCATTCTGGAAAGGTGTATGCTATTGTCAGTGTGC
B7: NRC3_wobSeed133_DR5_T19G_o1 (dsDNA)
DNA 1: GCCGTCCAAGGTCAATGCGAGGTCAGTGAAAGCATTGCGATTGACAGCGTAGAATGAAGG
DNA 2: CCTTCATTCTACGCTGTCAATCGCAATGCTTTCACTGACCTCGCATTGACCTTGGACGGC
B8: NRC3_wobSeed117_DR4_A23C_o1 (dsDNA)
DNA 1: GCCGTCAAAGTTCAACTAAGGTCACGTAAAGCACGCGCGATTGACAGCGTAGAATGAAGG
DNA 2: CCTTCATTCTACGCTGTCAATCGCGCGTGCTTTACGTGACCTTAGTTGAACTTTGACGGC
B9: NRC3_wobSeed100_DR4_C12T_o1 (dsDNA)
DNA 1: GCCCTACTGGGTCACGAAAGGTCATTGATTCAGTGAGCGATTGACAGCGTAGAATGAAGG
DNA 2: CCTTCATTCTACGCTGTCAATCGCTCACTGAATCAATGACCTTTCGTGACCCAGTAGGGC
B10: NRC3_wobSeed101_DR4_C8G_o1 (dsDNA)
DNA 1: GCCCTTAGGGGTCACTCCAGGTTATAGCATCGGAGTGCGATTGACAGCGTAGAATGAAGG
DNA 2: CCTTCATTCTACGCTGTCAATCGCACTCCGATGCTATAACCTGGAGTGACCCCTAAGGGC
B11: NRC3_wobSeed72_DR2_G20T_o1 (dsDNA)
DNA 1: GCTCGAGTAGGTTACGGGGTCATTCAGGGATGAAGAGCGATTGACAGCGTAGAATGAAGG
DNA 2: CCTTCATTCTACGCTGTCAATCGCTCTTCATCCCTGAATGACCCCGTAACCTACTCGAGC
B12: NRC3_wobSeed73_DR3_T8G_o1 (dsDNA)
DNA 1: GCCAAACGAGGTCACAGAGGTCAAAGTCCGTGCGTAGCGATTGACAGCGTAGAATGAAGG
DNA 2: CCTTCATTCTACGCTGTCAATCGCTACGCACGGACTTTGACCTCTGTGACCTCGTTTGGC
B13: NRC3_wobSeed73_DR3_T8C_o1 (dsDNA)
DNA 1: B12 DNA 1 with G8C
DNA 2: B12 DNA 2 with C53G

Target: THRa:RXRa (Homo sapiens, UniProt P10827;P19793 full;full)
Sequence (P10827 other isoform, or with tags, fused parts or gaps, chain 1 of 2): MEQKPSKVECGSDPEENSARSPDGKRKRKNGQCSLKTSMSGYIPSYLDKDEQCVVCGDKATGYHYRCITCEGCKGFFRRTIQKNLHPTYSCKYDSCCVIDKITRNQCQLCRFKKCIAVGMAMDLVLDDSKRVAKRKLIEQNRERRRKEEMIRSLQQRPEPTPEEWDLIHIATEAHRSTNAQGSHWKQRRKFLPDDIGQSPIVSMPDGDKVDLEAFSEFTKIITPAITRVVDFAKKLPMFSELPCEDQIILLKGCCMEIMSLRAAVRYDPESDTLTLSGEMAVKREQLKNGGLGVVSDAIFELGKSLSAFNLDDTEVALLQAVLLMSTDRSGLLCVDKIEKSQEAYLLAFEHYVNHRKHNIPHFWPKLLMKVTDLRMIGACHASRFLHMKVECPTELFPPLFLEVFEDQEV
Sequence (P19793 whole entry, chain 2 of 2): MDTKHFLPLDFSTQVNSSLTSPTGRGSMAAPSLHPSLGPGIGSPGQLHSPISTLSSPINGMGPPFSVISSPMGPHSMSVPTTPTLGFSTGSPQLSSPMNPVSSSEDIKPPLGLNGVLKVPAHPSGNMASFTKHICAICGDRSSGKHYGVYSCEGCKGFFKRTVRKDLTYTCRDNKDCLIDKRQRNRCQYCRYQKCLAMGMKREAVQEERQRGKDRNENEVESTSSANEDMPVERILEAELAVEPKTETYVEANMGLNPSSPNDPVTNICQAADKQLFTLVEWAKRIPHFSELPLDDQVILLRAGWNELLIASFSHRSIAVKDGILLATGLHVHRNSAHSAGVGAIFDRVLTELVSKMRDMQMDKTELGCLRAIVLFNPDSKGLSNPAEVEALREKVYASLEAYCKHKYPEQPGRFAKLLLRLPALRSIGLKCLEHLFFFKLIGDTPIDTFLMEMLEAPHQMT
Test: no ligand; PBM; 90 nM : 90 nM RXRa; PBS pH 7.4, 2% milk, 0.02% Triton X-100, 1 mM DTT, BSA, 0.4 mg/ml salmon testes DNA
Conditions: tags: His kept;His cleaved; copies: 1;1; label: surface-attached array probe

| Binder | binding signal |
| --- | --- |
| B1 | 5.05 PBM z-score against 500 random probes |
| B2 | 5.13 PBM z-score against 500 random probes |
| B3 | 5.07 PBM z-score against 500 random probes |
| B4 | 5.46 PBM z-score against 500 random probes |
| B5 | -0.43 PBM z-score against 500 random probes |
| B6 | 0.05 PBM z-score against 500 random probes |
| B7 | 5.07 PBM z-score against 500 random probes |
| B8 | 5.72 PBM z-score against 500 random probes |
| B9 | 5.47 PBM z-score against 500 random probes |
| B10 | 5.63 PBM z-score against 500 random probes |
| B11 | 4.85 PBM z-score against 500 random probes |
| B12 | 5.25 PBM z-score against 500 random probes |
| B13 | 5.06 PBM z-score against 500 random probes |

Target: PPARa:RXRa (Homo sapiens, UniProt Q07869;P19793 full;full)
Test: no ligand; PBM; 270 nM : 90 nM RXRa; PBS pH 7.4, 2% milk, 0.02% Triton X-100, 1 mM DTT, BSA, 0.4 mg/ml salmon testes DNA
Conditions: tags: GST kept;His cleaved; copies: 1;1; label: surface-attached array probe
In short: (§1)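 Custom Agilent 4×180K protein-binding microarrays carried double-stranded probes. Their 34-nt variable regions held direct-repeat seeds, single-nucleotide variants, half-site ablations and random human genomic background sequences. Arrays were incubated 1 h with ligand-free nuclear receptor dimers in PBS pH 7.4, 2% milk, 0.02% Triton X-100, 1 mM DTT, 0.2 mg/mL BSA and 0.4 mg/ml salmon testes DNA. Antibodies against each partner (one per run) detected binding, and scanned fluorescence was regression-normalized. Binding z-scores use random background probes as reference.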

| Binder | binding signal |
| --- | --- |
| B5 | -0.57 PBM z-score against 500 random probes |
| B10 | 6.76 PBM z-score against 500 random probes |
| B12 | 7.16 PBM z-score against 500 random probes |

Target: RARg:RXRa (Homo sapiens, UniProt P13631;P19793 full;full)
Sequence (P13631 whole entry, chain 1 of 2): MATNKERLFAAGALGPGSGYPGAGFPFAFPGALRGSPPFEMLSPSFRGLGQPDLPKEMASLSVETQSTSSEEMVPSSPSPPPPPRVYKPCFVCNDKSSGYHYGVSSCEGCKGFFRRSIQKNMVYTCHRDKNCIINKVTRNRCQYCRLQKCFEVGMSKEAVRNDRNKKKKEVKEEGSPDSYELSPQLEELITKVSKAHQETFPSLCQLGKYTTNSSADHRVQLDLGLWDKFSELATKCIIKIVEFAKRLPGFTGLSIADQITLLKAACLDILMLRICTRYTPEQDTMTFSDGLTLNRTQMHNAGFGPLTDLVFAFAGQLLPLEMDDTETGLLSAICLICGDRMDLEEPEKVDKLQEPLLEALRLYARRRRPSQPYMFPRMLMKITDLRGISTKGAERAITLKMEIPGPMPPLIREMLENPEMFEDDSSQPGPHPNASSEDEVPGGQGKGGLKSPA
Sequence (P19793 whole entry, chain 2 of 2): as the sequence (P19793 whole entry, chain 2 of 2) above
Test: as above
Conditions: tags: His kept;His cleaved; copies: 1;1; label: surface-attached array probe
In short: as §1

| Binder | binding signal |
| --- | --- |
| B1 | 9.36 PBM z-score against 500 random probes |
| B2 | 8.19 PBM z-score against 500 random probes |
| B3 | 9.65 PBM z-score against 500 random probes |
| B4 | 9.68 PBM z-score against 500 random probes |
| B7 | 8.33 PBM z-score against 500 random probes |
| B8 | 7.95 PBM z-score against 500 random probes |
| B10 | 7.43 PBM z-score against 500 random probes |
| B12 | 8.72 PBM z-score against 500 random probes |

Target: FXR:RXRa (Homo sapiens, UniProt Q96RI1;P19793 full;full)
Test: as above
Conditions: tags: His kept;His cleaved; copies: 1;1; label: surface-attached array probe
In short: as §1

| Binder | binding signal |
| --- | --- |
| B1 | 8.52 PBM z-score against 500 random probes |
| B3 | 9.54 PBM z-score against 500 random probes |
| B4 | 9.93 PBM z-score against 500 random probes |
| B8 | 7.83 PBM z-score against 500 random probes |
| B10 | 8.32 PBM z-score against 500 random probes |
| B12 | 9.18 PBM z-score against 500 random probes |
| B13 | 8 PBM z-score against 500 random probes |

Target: PXR:RXRa (Homo sapiens, UniProt O75469;P19793 full;full)
Sequence (O75469 whole entry, chain 1 of 2): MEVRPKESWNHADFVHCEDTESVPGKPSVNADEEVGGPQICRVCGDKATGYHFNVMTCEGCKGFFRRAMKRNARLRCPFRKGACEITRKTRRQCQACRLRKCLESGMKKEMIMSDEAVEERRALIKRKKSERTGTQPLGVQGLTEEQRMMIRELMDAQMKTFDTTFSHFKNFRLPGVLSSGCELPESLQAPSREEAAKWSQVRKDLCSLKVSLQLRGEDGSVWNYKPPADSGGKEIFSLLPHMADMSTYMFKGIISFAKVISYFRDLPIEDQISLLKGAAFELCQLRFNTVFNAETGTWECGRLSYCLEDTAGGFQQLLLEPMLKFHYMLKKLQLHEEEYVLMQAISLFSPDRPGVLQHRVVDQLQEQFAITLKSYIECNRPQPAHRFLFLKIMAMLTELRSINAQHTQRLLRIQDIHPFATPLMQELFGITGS
Sequence (P19793 whole entry, chain 2 of 2): as the sequence (P19793 whole entry, chain 2 of 2) above
Test: as above
Conditions: tags: His kept;His cleaved; copies: 1;1; label: surface-attached array probe
In short: as §1

| Binder | binding signal |
| --- | --- |
| B1 | 7.43 PBM z-score against 500 random probes |
| B2 | 6.95 PBM z-score against 500 random probes |
| B3 | 7.73 PBM z-score against 500 random probes |
| B4 | 7.89 PBM z-score against 500 random probes |
| B6 | 0.17 PBM z-score against 500 random probes |
| B7 | 6.42 PBM z-score against 500 random probes |
| B8 | 7.87 PBM z-score against 500 random probes |
| B9 | 7.22 PBM z-score against 500 random probes |
| B10 | 7.15 PBM z-score against 500 random probes |
| B11 | 6.49 PBM z-score against 500 random probes |
| B12 | 8.14 PBM z-score against 500 random probes |

Target: RARb:RXRa (Homo sapiens, UniProt P10826;P19793 full;full)
Sequence (P10826 whole entry, chain 1 of 2): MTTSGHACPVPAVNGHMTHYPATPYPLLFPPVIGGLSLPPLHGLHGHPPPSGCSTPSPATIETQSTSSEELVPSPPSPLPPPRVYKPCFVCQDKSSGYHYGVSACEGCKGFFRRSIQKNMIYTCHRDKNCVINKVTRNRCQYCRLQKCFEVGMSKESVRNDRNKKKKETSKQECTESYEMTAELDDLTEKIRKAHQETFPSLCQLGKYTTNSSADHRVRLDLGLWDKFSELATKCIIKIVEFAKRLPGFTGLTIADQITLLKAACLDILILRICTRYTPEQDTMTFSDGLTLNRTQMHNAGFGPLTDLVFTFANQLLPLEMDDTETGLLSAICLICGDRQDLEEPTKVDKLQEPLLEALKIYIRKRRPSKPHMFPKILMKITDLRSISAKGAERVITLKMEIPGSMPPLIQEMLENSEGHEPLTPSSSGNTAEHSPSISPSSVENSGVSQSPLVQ
Sequence (P19793 whole entry, chain 2 of 2): as the sequence (P19793 whole entry, chain 2 of 2) above
Test: as above
Conditions: tags: His kept;His cleaved; copies: 1;1; label: surface-attached array probe
In short: as §1

| Binder | binding signal |
| --- | --- |
| B1 | 6.21 PBM z-score against 500 random probes |
| B2 | 5.48 PBM z-score against 500 random probes |
| B3 | 6.19 PBM z-score against 500 random probes |
| B4 | 6.33 PBM z-score against 500 random probes |
| B8 | 6.07 PBM z-score against 500 random probes |
| B9 | 5.53 PBM z-score against 500 random probes |
| B12 | 5.94 PBM z-score against 500 random probes |

Target: VDR:RXRa (Homo sapiens, UniProt P11473;P19793 full;full)
Sequence (P11473 whole entry, chain 1 of 2): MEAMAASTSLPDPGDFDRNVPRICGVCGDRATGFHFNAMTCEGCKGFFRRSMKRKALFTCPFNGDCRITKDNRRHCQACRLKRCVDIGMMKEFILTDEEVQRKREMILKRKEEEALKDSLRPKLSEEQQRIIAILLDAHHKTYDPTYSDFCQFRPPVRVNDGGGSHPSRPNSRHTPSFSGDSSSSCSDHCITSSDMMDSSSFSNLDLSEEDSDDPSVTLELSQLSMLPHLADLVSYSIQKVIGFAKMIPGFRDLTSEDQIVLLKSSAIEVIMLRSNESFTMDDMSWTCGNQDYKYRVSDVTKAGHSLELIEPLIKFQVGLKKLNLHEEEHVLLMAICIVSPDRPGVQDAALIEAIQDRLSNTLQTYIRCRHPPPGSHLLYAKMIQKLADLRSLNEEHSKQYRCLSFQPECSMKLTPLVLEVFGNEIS
Sequence (P19793 whole entry, chain 2 of 2): as the sequence (P19793 whole entry, chain 2 of 2) above
Test: as above
Conditions: tags: His kept;His cleaved; copies: 1;1; label: surface-attached array probe
In short: as §1

| Binder | binding signal |
| --- | --- |
| B1 | 7.25 PBM z-score against 500 random probes |
| B2 | 6.63 PBM z-score against 500 random probes |
| B3 | 7.62 PBM z-score against 500 random probes |
| B4 | 8.02 PBM z-score against 500 random probes |
| B8 | 7.49 PBM z-score against 500 random probes |
| B10 | 6.64 PBM z-score against 500 random probes |
| B12 | 8.86 PBM z-score against 500 random probes |
| B13 | 8.47 PBM z-score against 500 random probes |

Target: RARa:RXRa (Homo sapiens, UniProt P10276;P19793 full;full)
Test: as above
Conditions: tags: His kept;His cleaved; copies: 1;1; label: surface-attached array probe
In short: as §1

| Binder | binding signal |
| --- | --- |
| B1 | 8.86 PBM z-score against 500 random probes |
| B2 | 7.52 PBM z-score against 500 random probes |
| B3 | 9.67 PBM z-score against 500 random probes |
| B4 | 9.62 PBM z-score against 500 random probes |
| B5 | -0.36 PBM z-score against 500 random probes |
| B6 | 0.41 PBM z-score against 500 random probes |
| B7 | 7.03 PBM z-score against 500 random probes |
| B8 | 7.16 PBM z-score against 500 random probes |
| B9 | 7.1 PBM z-score against 500 random probes |
| B10 | 7.45 PBM z-score against 500 random probes |
| B11 | 7.48 PBM z-score against 500 random probes |
| B12 | 9.08 PBM z-score against 500 random probes |
| B13 | 8.19 PBM z-score against 500 random probes |

Target: LXRb:RXRa (Homo sapiens, UniProt P55055;P19793 full;full)
Test: as above
Conditions: tags: His kept;His cleaved; copies: 1;1; label: surface-attached array probe
In short: as §1

| Binder | binding signal |
| --- | --- |
| B1 | 7.08 PBM z-score against 500 random probes |
| B3 | 8.13 PBM z-score against 500 random probes |
| B4 | 8.31 PBM z-score against 500 random probes |
| B5 | -0.18 PBM z-score against 500 random probes |
| B8 | 7.09 PBM z-score against 500 random probes |
| B9 | 6.66 PBM z-score against 500 random probes |
| B10 | 7.21 PBM z-score against 500 random probes |
| B12 | 7.74 PBM z-score against 500 random probes |
| B13 | 6.76 PBM z-score against 500 random probes |

Target: LXRa:RXRa (Homo sapiens, UniProt Q13133;P19793 full;full)
Test: as above
Conditions: tags: His kept;His cleaved; copies: 1;1; label: surface-attached array probe
In short: as §1

| Binder | binding signal |
| --- | --- |
| B1 | 7.26 PBM z-score against 500 random probes |
| B3 | 8.24 PBM z-score against 500 random probes |
| B4 | 8.54 PBM z-score against 500 random probes |
| B8 | 8.08 PBM z-score against 500 random probes |
| B9 | 8.11 PBM z-score against 500 random probes |
| B10 | 8.6 PBM z-score against 500 random probes |
| B12 | 7.82 PBM z-score against 500 random probes |

Target: RXRa (Homo sapiens, UniProt P19793)
Sequence (P19793 whole entry): as the sequence (P19793 whole entry, chain 2 of 2) above
Test: no ligand; PBM; 180 nM; PBS pH 7.4, 2% milk, 0.02% Triton X-100, 1 mM DTT, BSA, 0.4 mg/ml salmon testes DNA
Conditions: tags: His cleaved; chain copies: 2; label: surface-attached array probe

| Binder | binding signal |
| --- | --- |
| B1 | 8.89 PBM z-score against 500 random probes |
| B3 | 11.2 PBM z-score against 500 random probes |
| B4 | 11 PBM z-score against 500 random probes |
| B5 | -0.49 PBM z-score against 500 random probes |
| B10 | 8.62 PBM z-score against 500 random probes |
| B12 | 9.83 PBM z-score against 500 random probes |
